The text below walks through data of US5376632A, “Cyclodextrin based erythropoietin formulation” (priority 1992, dated 1994).

The nature of series [1]: Irritation at the site of injection and clinical safety in healthy volunteers (Example 8). In kind it is in vivo, human (healthy male volunteers). The conditions noted are these: s.c. The protocol: Bioavailability of erythropoietin after subcutaneous administration of erythropoietin in a hydroxypropyl-β-cyclodextrin formulation in comparison with formulations using human serum albumin in healthy volunteers was assessed in the following study.
Six healthy male volunteers with ages ranging between 30 and 40 (median 32) years, body weights between 69 and 80 (median 75) kg were administered subcutaneously in the upper arm 1 ml of an EPO solution (4000 I.U./ml) according to a randomized cross-over design. A four-week interval occured between the two tests. The two formulations of EPO were
Irritation at the site of injection was scored before and 2, 4, and 24 hours after each administration. No oedema, erythema, itching or pain was reported in any of the volunteers at any time during the whole study. Both formulations are therefore equally well tolerated.

For series [2] the following is noted: -80° C.; cited from earlier work.

Turning to “EPO: circulating glycoprotein hormone which induces an increase in red cell mass”, in series [1], the “blood pressure or heart rate” value is “Nor did subcutaneous administration of EPO influence blood pressure or heart rate”; the “haematology and serum biochemistry” value was “No clinically important changes”. Moreover, the “decrease in activity in aqueous solution” value in series [2] is listed as “substantial decrease in activity”.
